Values of other authors, collected in publication PMC4155411.

Biological target: HPr (Escherichia coli) (UniProt P0AA04)
Experiment: PRE NMR titration

Enzyme I N-terminal domain (EIN) N-terminal domain (from UniProt P08839)
Kd: 7 µM
